Results reported in patent US8133978 (GlaxoSmithKline, dated 2012).

T1: Human interleukin-18 (recombinant human IL-18) (human, UniProt Q14116 37-193)
T1 construct: also called hIL-18
T1 sequence: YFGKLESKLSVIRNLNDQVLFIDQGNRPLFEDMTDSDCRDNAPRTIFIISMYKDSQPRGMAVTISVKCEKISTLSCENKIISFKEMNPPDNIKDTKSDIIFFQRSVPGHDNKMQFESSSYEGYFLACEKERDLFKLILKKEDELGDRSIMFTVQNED


What was measured:
[1] = molecular target: T1, Human interleukin-18 (recombinant human …); assay: ELISA, human IL-18 captured by 16D10, antibody titrated
Experimental: ELISA with all nine humanised variants was carried out at least 6 times using various batches of purified antibody preparation. FIGS. 4A-4C show representative data from one experiment which generated the EC50 value ranking illustrated in Table 7. Human IL-18 was immobilized on Nunc Maxisorp 96-well plates using 2.5 µg/ml of 16D10 (non-neutralising mouse monoclonal antibody) to capture 5 ng/ml of recombinant human IL-18. Anti-IL-18 humanised antibodies were added at various dilutions. Bound humanised antibodies were detected using anti-human IgG Fc specific peroxidase conjugate (Sigma A0170).

[2] = molecular target: T1, Human interleukin-18 (recombinant human …); assay: ELISA, antibody on plate, human IL-18 captured, detected by 16D10; room temperature, in serum
Experimental: (§1) ELISA was carried out with the three Humanised H1 variants; H1L1, H1L2 and H1L3 to assess binding to human IL-18 at room temperature and at 37° C. in both human serum and in block solution (PBS 0.05% TWEEN with 1% BSA (w/v)). The Humanised antibody variants were immobilised on Nunc Maxisorp 96-well plates at 2.5 µg/ml. Capture of 5 ng/ml of recombinant human IL-18 was carried out either at room temperature or 37° C. in human serum or block solution. Anti-IL-18 mouse monoclonal antibody 16D10 was added. The bound mouse antibody was detected using anti-mouse kappa peroxidase conjugate (Serotec MCA 1291P). Representative EC50 values generated from the study data are illustrated in Table 9.

[3] = molecular target: T1, Human interleukin-18 (recombinant human …); assay: SPR, Biacore T100, Protein A capture, 37 C, mean n = 2
Experimental: (§2) The methodology was basically the same as for the method used in Example 4a above; Protein A was immobilised on a CM5 chip at densities of between 2000-6000 RU's by primary amine coupling. Runs were carried out in HBS-EP (Biacore™). The anti-IL-18 antibodies were captured to densities of between 100-500 RUs, human IL-18 was passed over this captured surface at concentrations between 16-0.0625 nM, with 0 nM concentration (i.e., a buffer only injection of captured antibody) used for double referencing. Regeneration after each injection of IL-18 was by mild acidic elution using two injections of 10 mM glycine, pH1.5. […] The binding curves obtained were analysed using the analysis software inherent to the T100 machine using the 1:1 model of binding. Runs were carried out at the temperatures indicated.

Rhesus IL-18 [4] = molecular target: T2, Rhesus IL-18 (rhesus (rhesus/cynomolgus)); assay: Rhesus IL18 binding ELISA, antibody titrated, OD 490 nm
T2 construct: also called Rhesus/Cynomolgus IL-18; rhesus/cynomolgus IL-18

[5] = molecular target: T1, Human interleukin-18 (recombinant human …); assay: SPR, Biacore T100, Protein A capture, 25 C, mean n = 3
Experimental: as §2
These experiments were carried out as described above. Table 6 details the kinetic parameters obtained. […] H1L2 has a better on-rate (ka) than H1L1.

[6] = molecular target: T1, Human interleukin-18 (recombinant human …); assay: ELISA, antibody on plate, human IL-18 captured, detected by 16D10; 37 C, blocking buffer
Experimental: as §1

[7] = molecular target: T1, Human interleukin-18 (recombinant human …); assay: ELISA, antibody on plate, human IL-18 captured, detected by 16D10; 37 C, in serum
Experimental: as §1

[8] = molecular target: T1, Human interleukin-18 (recombinant human …); assay: SPR, Biacore 3000, antibody captured on Protein A, 25 C
Experimental: Biacore™ kinetic analysis of the humanised 2C10 antibodies was carried out on a Biacore™ 3000 instrument using Protein A capture of the antibodies in HBS-EP buffer (Biacore™). Briefly, Protein A was immobilised on a CM5 chip by primary amine coupling, using manufacturers recommended protocol, to densities around 2000-4000 resonance units (RU's). Humanised antibody was then passed over the Protein A surface and captured to levels of around 200-500 RU's, after a period of stabilisation, IL-18 (human or Rhesus) was passed over the captured antibody surface at defined concentrations and binding sensorgrams were obtained. […] All curves were double referenced against a buffer injection instead of IL-18 and the data was fitted to the 1:1 binding model using the global fit parameters in BiaEval 4.1. Off-rate ranking experiments were set up using the same Protein A capture method, however, only a single concentration of IL-18 was used (10 nM). Whilst the data was fitted using the same binding model as the kinetic analysis, since only one concentration of analyte was used on the off-rate is reported, this value is useful for ranking rather than giving an exact kinetic measurement and was used as a way of selecting which antibodies would be further investigated. […]

[9] = molecular target: T1, Human interleukin-18 (recombinant human …); assay: ELISA, antibody on plate, human IL-18 captured, detected by 16D10; room temperature, blocking buffer
Experimental: as §1

Rhesus IL-18 [10] = molecular target: T2, Rhesus IL-18; assay: SPR, Biacore 3000, antibody captured on Protein A, 25 C
Experimental: (§3) Biacore™ kinetic analysis of the humanised 2C10 antibodies was carried out on a Biacore™ 3000 instrument using Protein A capture of the antibodies in HBS-EP buffer (Biacore™). Briefly, Protein A was immobilised on a CM5 chip by primary amine coupling, using manufacturers recommended protocol, to densities around 2000-4000 resonance units (RU's). Humanised antibody was then passed over the Protein A surface and captured to levels of around 200-500 RU's, after a period of stabilisation, IL-18 (human or Rhesus) was passed over the captured antibody surface at defined concentrations and binding sensorgrams were obtained. […] All curves were double referenced against a buffer injection instead of IL-18 and the data was fitted to the 1:1 binding model using the global fit parameters in BiaEval 4.1. Off-rate ranking experiments were set up using the same Protein A capture method, however, only a single concentration of IL-18 was used (10 nM). Whilst the data was fitted using the same binding model as the kinetic analysis, since only one concentration of analyte was used on the off-rate is reported, this value is useful for ranking rather than giving an exact kinetic measurement and was used as a way of selecting which antibodies would be further investigated.
(§4) Based upon these observations selected antibodies were investigated in greater detail for binding to human and Rhesus IL-18 at 37° C. The data shown in Table 4b for human IL-18 is the mean (and standard deviation) of six separate determinations.

Rhesus IL-18 [11] = molecular target: T2, Rhesus IL-18; assay: Rhesus IL-18 binding ELISA, antibody titrated, OD 490 nm
[12] = molecular target: T1, Human interleukin-18 (recombinant human …); assay: cell-based or functional assay
Rhesus IL-18 [13] = molecular target: T2, Rhesus IL-18; assay: SPR, Biacore 3000, antibody captured on Protein A, 37 C
Experimental: as §3, §4

[14] = molecular target: T1, Human interleukin-18 (recombinant human …); assay: as above
Experimental: as §3, §4

[15] = molecular target: T1, Human interleukin-18 (recombinant human …); assay: SPR, Biacore T100, Protein A capture, 37 C, mean n = 3
Experimental: as §2

| EC50 [1] [ng/mL] | EC50 [2] [ng/mL] | Kd [3] [nM] | EC50 (read off the curve) (Rhesus IL-18 [4]) [µg/mL] | Kd [5] [nM] | EC50 [6] [ng/mL] | EC50 [7] [µg/mL] | Kd [8] [nM] | EC50 [9] [ng/mL] | Kd (Rhesus IL-18 [10]) [nM] | EC50 (read off the curve) (Rhesus IL-18 [11]) [µg/mL] | % change vs 2C10 (IC50, KG-1 bioassay) [12] [%] | Kd (Rhesus IL-18 [13]) [nM] | Kd [14] [nM] | Kd [15] [nM] | Binder |
| --- | --- | --- | --- | --- | --- | --- | --- | --- | --- | --- | --- | --- | --- | --- | --- |
| 7 | 7.3 | 0.0229 | ~0.02 | 0.0091 | 3.79 | 0.0101 | 0.0139 | 3.81 | 0.0547 | ~0.01 | – | – | – | – | 2C10 rat-human chimera (chimaeric antibody 2C10c) (antibody, V domains shown, Rat 2C10 V regions joined to human IgG1 and kappa C regions; also called Chimera 2C10; 2C10 Chimera) VH: EVQLQQSGAELVRPGTSVKLSCKVSGEISTGYYFHFVRRRPGQGLEWIGRIDPEDDSTKYAERFKDRATLTAQTSSNTAYLNLSSLTSEDTATYFCTTWRIYRDSSGRPFYVMDAWGQGTLVTVSS VL: DIQMTQSPASLSASLGETVSIECLASEDIYTYLTWYQQKPGKSPQLLIYGANKLQDGVPSRFSGSGSGTQYSLKISGIQPEDEGDYFCLQGSKFPLTFGSGTKLEIKR |
| 11 | 8.99 | – | – | 0.022 | 3.33 | 0.0114 | 0.0225 | 3.79 | 0.109 | – | 71.6 | 0.17 | 0.188 | 0.0648 | H1L3 humanised anti-IL-18 antibody (antibody, human IgG1, kappa, V domains shown, Human IgG1 / kappa) VH: QVQLVQSGAEVKKPGASVKVSCKVSGEISTGYYFHWVRQAPGKGLEWMGRIDPEDDSTKYAERFKDRVTMTEDTSTDTAYMELSSLRSEDTAVYYCTTWRIYRDSSGRPFYVMDAWGQGTLVTVSS VL: DIQMTQSPSSVSASVGDRVTITCLASEDIYTYLTWYQQKPGKAPQLLIYGANKLQDGVPSRFSGSGSGTDYTLTISSLQPEDEGDYYCLQGSKFPLTFGQGTKLEIKR |
